Reference: paper PMC7736860

How the values were obtained:
Test in all cases: EMSA
Settings in all cases: Chemiluminescent EMSA kit (Beyotime); buffer, salt, pH and temperature not stated
[1] = molecular target: T1, BTF3 (Arabidopsis thaliana) (UniProt Q9SMW7)
T1 sequence: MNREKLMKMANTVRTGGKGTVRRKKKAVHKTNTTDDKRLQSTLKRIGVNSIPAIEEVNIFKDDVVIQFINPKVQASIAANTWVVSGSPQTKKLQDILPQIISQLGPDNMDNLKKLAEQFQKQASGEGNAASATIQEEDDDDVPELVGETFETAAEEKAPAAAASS

[2] = molecular target: T2, HAT1 (Arabidopsis thaliana) (UniProt P46600)
T2 sequence: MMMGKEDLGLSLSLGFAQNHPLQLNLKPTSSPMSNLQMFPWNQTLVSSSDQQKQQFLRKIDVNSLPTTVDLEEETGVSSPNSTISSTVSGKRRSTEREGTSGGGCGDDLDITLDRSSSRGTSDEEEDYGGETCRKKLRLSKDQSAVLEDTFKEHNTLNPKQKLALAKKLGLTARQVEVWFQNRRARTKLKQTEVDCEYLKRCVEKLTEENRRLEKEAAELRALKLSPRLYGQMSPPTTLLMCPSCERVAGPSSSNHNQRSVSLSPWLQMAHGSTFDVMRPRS

[3] = molecular target: T3, TEM1 (TEMPRANILLO1) (Arabidopsis thaliana) (UniProt Q9C6M5)
T3 sequence: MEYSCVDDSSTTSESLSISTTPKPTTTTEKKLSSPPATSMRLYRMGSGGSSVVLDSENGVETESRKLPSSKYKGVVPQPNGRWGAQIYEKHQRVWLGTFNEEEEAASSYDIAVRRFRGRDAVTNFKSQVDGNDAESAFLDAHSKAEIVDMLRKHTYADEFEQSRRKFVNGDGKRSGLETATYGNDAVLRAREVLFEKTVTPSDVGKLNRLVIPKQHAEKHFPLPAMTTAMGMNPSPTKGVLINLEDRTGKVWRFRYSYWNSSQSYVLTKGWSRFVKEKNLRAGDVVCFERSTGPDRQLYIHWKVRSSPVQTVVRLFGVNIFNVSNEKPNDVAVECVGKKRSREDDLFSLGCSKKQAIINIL

[4] = molecular target: T4, bHLH106 (Arabidopsis thaliana) (UniProt O80674)
T4 sequence: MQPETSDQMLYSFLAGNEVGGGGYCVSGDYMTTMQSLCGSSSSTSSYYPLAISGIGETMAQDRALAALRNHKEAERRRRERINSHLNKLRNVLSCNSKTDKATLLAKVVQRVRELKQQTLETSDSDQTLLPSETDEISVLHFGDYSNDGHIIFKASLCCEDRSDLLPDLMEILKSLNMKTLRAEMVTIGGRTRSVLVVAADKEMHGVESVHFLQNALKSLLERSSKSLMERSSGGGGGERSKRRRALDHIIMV

[5] = molecular target: T5, bZIP1664 (Arabidopsis thaliana) (UniProt F4I978)
T5 sequence: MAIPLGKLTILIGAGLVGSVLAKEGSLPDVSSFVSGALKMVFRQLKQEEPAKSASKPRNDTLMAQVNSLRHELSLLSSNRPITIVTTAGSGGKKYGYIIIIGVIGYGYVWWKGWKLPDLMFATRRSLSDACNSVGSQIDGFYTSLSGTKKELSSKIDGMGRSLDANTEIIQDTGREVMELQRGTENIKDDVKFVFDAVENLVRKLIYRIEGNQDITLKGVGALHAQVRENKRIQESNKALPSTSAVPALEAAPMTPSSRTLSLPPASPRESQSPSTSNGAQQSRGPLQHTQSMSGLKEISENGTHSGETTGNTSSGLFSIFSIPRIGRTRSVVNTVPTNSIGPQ

Measured: binding

GTGAAACAGCGTGTGTTATGCACAATAATGGATTCCCGAAGTGGAAGGGTACATTTGTCCTTTCGAGATCAATTTCTCGATACAGTAAAAATGGGCCATTGTTGTTTACTTTTCCTTGGTGTTAAAACAATAATGTAGTGCCCCCACTTAGATATTTTTTTGCTAGGTTTTGGCTCCAACCCAAGAAAAATTCGTTCGGTGACTAATAATAATCGCTGACCCCGA (double strand)
binds: [1] | [2] | [3] | [4] | [5]
